Tested on: S9.6 anti-DNA:RNA hybrid monoclonal antibody, gold conjugate
Experiment: immuno electron microscopy
Details: 10 ug/mL S9.6-gold, psoralen cross-linked, co-transcriptional R-loop (RNA hybrid), S9.6-gold 10 ug/mL with 80-100 ng pFC53, 1 h at 37 C, then 0.2% glutaraldehyde 15 min at 37 C, labeling buffer, salt and pH not given

Row | Substance | binding signal (% of molecules labeled) (labels cluster in Airn region) | binding signal (% of molecules labeled)
1 | pFC53 linear, T3-transcribed, R-loop in mAirn | 50 | 
2 | pFC53 circular, T3-transcribed, R-loop in mAirn |  | 50
